Test results from patent publication US20070111265A1 (VAN ANDEL RESEARCH INSTITUTE, published 2007).
No end group written: not given here.

Assays:
[1] = molecular target: T1, human MR LBD (residues 727-984) containing a C808S mutation, 6xHis-GST fusion protein (human, UniProt P08235 727-984); assay: AlphaScreen quantitative competition with unlabeled peptide, MR LBD/corticosterone
T1 construct: also called purified MR LBD; MR LBD (C808S); not shown: glutathione S-transferase (GST) tag; thrombin protease site between GST and the MR LBD
T1 sequence: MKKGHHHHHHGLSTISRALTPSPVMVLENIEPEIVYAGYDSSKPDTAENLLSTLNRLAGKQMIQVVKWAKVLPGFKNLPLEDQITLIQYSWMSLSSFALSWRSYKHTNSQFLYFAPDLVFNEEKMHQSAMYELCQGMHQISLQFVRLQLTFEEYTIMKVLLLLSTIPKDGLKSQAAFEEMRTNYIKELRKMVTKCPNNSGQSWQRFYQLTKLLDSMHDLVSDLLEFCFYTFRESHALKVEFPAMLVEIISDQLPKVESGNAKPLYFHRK

[2] = molecular target: T1, human MR LBD (residues 727-984) …; assay: AlphaScreen competition (IC50 per FIG. 3F legend), MR LBD/corticosterone
Description: (§1) The binding of various peptide motifs to MR was determined by AlphaScreen assays using a hexahistidine detection kit from Perkin-Elmer. MR proteins were prepared as 6×His-GST fusion proteins for the assays.

[3] = molecular target: T1, human MR LBD (residues 727-984) …; assay: AlphaScreen, biotinylated peptide and 6xHis-GST MR LBD/corticosterone
Description: as §1

[4] = molecular target: T2, MR LBD (C808S) with K785E first charge clamp mutation, 6xHis-GST fusion protein (human, UniProt P08235 727-984); assay: AlphaScreen, 100 nM corticosterone
T2 construct: not shown: glutathione S-transferase (GST) tag; thrombin protease site between GST and the MR LBD
T2 sequence: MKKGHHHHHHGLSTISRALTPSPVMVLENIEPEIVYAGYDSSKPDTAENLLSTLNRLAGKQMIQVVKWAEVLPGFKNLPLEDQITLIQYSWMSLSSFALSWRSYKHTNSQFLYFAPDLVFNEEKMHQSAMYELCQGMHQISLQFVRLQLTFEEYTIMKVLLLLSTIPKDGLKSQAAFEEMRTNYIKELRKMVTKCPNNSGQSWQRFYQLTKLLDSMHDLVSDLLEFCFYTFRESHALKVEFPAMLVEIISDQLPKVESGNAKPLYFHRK

[5] = molecular target: T3, MR LBD (C808S) with E962R first charge clamp (AF-2 helix) mutation, 6xHis-GST fusion protein (human, UniProt P08235 727-984); assay: AlphaScreen, 100 nM corticosterone
T3 construct: not shown: glutathione S-transferase (GST) tag; thrombin protease site between GST and the MR LBD
T3 sequence: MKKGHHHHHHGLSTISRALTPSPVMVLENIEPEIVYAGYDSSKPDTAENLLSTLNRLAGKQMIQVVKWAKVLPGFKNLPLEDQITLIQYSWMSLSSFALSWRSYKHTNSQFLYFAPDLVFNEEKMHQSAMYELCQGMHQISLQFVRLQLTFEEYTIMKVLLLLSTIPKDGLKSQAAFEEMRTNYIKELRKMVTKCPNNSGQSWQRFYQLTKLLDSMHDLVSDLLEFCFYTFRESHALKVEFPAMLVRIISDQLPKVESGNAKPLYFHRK

Binder | IC50 [1] | binding result [4] | other results
SRC2-(2+3), human SRC2 fragment (residues 563-763) containing the 2nd and 3rd LXXLL motifs, 6xHis-GST fusion protein (other, UniProt Q15596 563-763, looked up, No removal of the 6xHis-GST tag is described; also called purified SRC2 fragment; not shown: 6xHis tag; glutathione S-transferase (GST) tag) QNSPVNMNPPPLSKMGSLDSKDCFGLYGEPSEGTTGQAESSCHPGEQKETNDPNLPPAVSSERADGQSRLHDSKGQTKLLQLLTTKSDQMEPSPLASSLSDTNKDSTGSLPGSGSTHGTSLKEKHKILHRLLQDSSSPVDLAKLTAEATGKDLSQESSSTAPGSEVTIKQEPVSPKKKENALLRYLLDKDDTKDIGLPEIT | – | – | IC50 [2]: 0.04 µM
SRC2-(M2+3), SRC2 fragment (2+3) with the 2nd LXXLL motif mutated to LXXAA (other, UniProt Q15596 563-763, looked up, not shown: 6xHis tag; glutathione S-transferase (GST) tag) QNSPVNMNPPPLSKMGSLDSKDCFGLYGEPSEGTTGQAESSCHPGEQKETNDPNLPPAVSSERADGQSRLHDSKGQTKLLQLLTTKSDQMEPSPLASSLSDTNKDSTGSLPGSGSTHGTSLKEKHKILHRAAQDSSSPVDLAKLTAEATGKDLSQESSSTAPGSEVTIKQEPVSPKKKENALLRYLLDKDDTKDIGLPEIT | – | – | fold decrease of binding affinity against SRC2-(2+3) [2]: > 10 fold
GHSFADPASNLGLEDIIRKALMGSF (also: biotinylated, site not given here, also called N-COR corepressor motif) [biotinylated NCOR-2 peptide] | – | – | binding result [3]: no binding
QEPVSPKKKENALLRYLLDKDDTKD (also: biotinylated, site not given here, also called third LXXLL motif of SRC2; TIF2/GRIP1 third motif) [biotinylated SRC2-3 (TIF2) peptide] | – | no binding | –
QAVQEHASASTNMGLEAIIRKALMGKY (also: biotinylated, site not given here, also called SMRT corepressor motif) [biotinylated SMRT-2 peptide] | – | – | binding result [3]: no binding

Further lines, with some results ahead:

IC50 [1] | binding result [4] | Binder | other results
0.9 µM | – | AQQKSLLQQLLTE (treated as one molecule; also called SRC1-4 LXXLL motif) [unlabeled SRC1-4 peptide AQQKSLLQQLLTE] | –
21.4 µM | – | SQTSHKLVQLLTTTA (also called 1st motif of SRC1) [unlabeled SRC1-1 peptide] | –
– | no binding | QKPTSGPQTPQAQQKSLLQQLLTE (also: biotinylated, site not given here) [biotinylated SRC1-4 peptide] | –
16.8 µM | – | SKGHKKLLQLLTCSS (also called 1st motif of SRC3) [unlabeled SRC3-1 peptide] | –
– | no binding | SPSSHSSLTERHKILHRLLQEGSP (also: biotinylated, site not given here) [biotinylated SRC1-2 peptide] | binding result [5]: no binding
